Assay results from publication PMC11741606 (2025).
Positions count from the first letter of the chain named.

Key:
Experiment in all cases: SPR
[1] = biological target: T1, dAPN-Q746K ectodomain, hFc-tagged (dog (Canis lupus familiaris), UniProt P79143 33-975, Q746K)
T1 sequence: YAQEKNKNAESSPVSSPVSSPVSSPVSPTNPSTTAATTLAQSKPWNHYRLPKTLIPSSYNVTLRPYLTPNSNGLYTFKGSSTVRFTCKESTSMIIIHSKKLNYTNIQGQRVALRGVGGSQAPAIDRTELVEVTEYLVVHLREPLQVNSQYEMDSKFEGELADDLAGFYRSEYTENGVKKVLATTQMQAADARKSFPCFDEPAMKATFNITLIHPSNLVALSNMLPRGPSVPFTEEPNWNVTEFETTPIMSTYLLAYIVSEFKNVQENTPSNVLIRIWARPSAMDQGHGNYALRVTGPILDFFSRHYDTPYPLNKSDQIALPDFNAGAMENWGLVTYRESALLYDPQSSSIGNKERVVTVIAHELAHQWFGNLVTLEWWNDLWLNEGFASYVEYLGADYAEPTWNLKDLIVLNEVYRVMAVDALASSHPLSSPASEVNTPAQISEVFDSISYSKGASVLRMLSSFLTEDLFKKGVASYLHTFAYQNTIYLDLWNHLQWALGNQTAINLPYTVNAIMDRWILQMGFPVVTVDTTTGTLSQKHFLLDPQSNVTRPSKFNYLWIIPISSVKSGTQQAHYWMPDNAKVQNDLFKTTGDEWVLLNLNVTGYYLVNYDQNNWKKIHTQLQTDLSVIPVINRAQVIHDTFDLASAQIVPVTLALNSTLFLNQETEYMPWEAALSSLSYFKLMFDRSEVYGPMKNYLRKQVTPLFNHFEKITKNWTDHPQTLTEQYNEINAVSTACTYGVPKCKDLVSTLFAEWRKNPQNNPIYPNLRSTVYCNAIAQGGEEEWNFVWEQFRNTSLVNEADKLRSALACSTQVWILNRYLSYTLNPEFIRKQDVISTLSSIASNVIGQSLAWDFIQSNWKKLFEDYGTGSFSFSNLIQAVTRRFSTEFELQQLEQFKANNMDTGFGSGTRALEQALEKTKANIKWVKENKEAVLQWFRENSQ

[2] = biological target: T2, dAPN-Q746K-D750E ectodomain, hFc-tagged (dog (Canis lupus familiaris), UniProt P79143 33-975, Q746K | D750E)
T2 sequence: T1 sequence with D718E

[3] = biological target: T3, dAPN-D750E ectodomain, hFc-tagged (dog (Canis lupus familiaris), UniProt P79143 33-975, D750E)
T3 sequence: T1 sequence with K714Q, D718E

B1: TGEV RBD (receptor-binding domain of the transmissible gastroenteritis coronavirus spike protein) (domain or fragment)
chain: TANLNNGFYPVSSSEVGLVNKSVVLLPSFYTHTIVNITIDLGMKRSGYGQPIASTLSNITLPMQDNNTDVYCIRSDQFSVYVHSTCKSSLWDNIFKRNCTDVLDATAVIKTGTCPFSFDKLNNYLTFNKFCLSLSPVGANCKFDVAARTRTNEQVVRSLYVIYEEGDNIVGVPSD
Kd [1]: 333 nM
Kd [2]: 1540 nM
Kd [3]: 30.8 nM
